Source: the supplement of paper PMC12764529
± gives the half width of the 95% confidence interval.

Legend:
[1] = folding stability dG unfold from trypsin proteolysis; higher = more stable
How it was run: (§1)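 How resistant each design was to proteolysis was captured as K50, inferred by Bayesian fitting of sequencing counts. Unfolding free energy was then derived relative to a sequence-predicted unfolded-state K50 and a shared folded-state K50, per protease or combined. Digestion used trypsin and chymotrypsin at 11 threefold-diluted concentrations plus a no-protease condition, on mini-proteins under 80 residues without cysteine in a PA-tagged cDNA display construct. Designs were kept only when AlphaFold2 dimer inter-PAE was above 15.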

[2] = folding stability dG unfold from chymotrypsin proteolysis; higher = more stable
How it was run: as §1

[3] = folding stability dG unfold (combined trypsin and chymotrypsin); higher = more stable
How it was run: as §1

Sequence	folding stability dG unfold [1] [kcal/mol]	folding stability dG unfold [2] [kcal/mol]	folding stability dG unfold [3] [kcal/mol]
SAGGSAKFKIVKIEKIEIEENGTIKIKVKLEDGSTFEIEIKVKIIPPPKPKKISLEELSEEERKKLSAGGSA [r15_41_TrROS_Hall]	1.29 ± 0.053	2.11 ± 0.097	1.8 ± 0.13
SAGGSAKGPKTVTYEFKIKYGDKYYLIKVTVKLHEVKYDPKTKKYTLNLKPNDKLEIKVEIYELDDSAGGSA [r15_1040_TrMRF]	2.29 ± 0.26	4.09 ± 0.086	3.7 ± 0.3
SAGGSAKIEIIKDPETGTYTIRLEKEIKPGQTLTITDENGETWKITSVSVEEVNGELYVTVKVEKVSAGGSA [r15_838_TrROS_Hall]	2.24 ± 0.048	3.542 ± 0.026	3.19 ± 0.056
SAGGSAKIKIITENGEELEIEVETKEELEKAVEALKKLLPPDAEIEVEVVEKDGKLIVKIKVKKKPSAGGSA [r15_80_TrROS_Hall]	1.54 ± 0.13	2.17 ± 0.12	1.85 ± 0.31
SAGGSAKIKITIEYDEETGEVRIKIEVDGKEYEITLSREELANMTIEELAKKLGVEIEEVEIYPVPSAGGSA [r15_801_TrROS_Hall]	3.35 ± 0.24	2.92 ± 0.28	3.35 ± 0.3
SAGGSAKIRYIKVLLRFPPKGEKKIIVIPIENIPEDRPEELIELAKAIAEAFVEGTGAEVEGIEISSAGGSA [r15_1013_TrMRF]	4.34 ± 0.2	3.88 ± 0.072	4.05 ± 0.13
SAGGSAKITVEVVVRSLEELEALVKALAPPGMEVEVKIVSVERRTVEVNGEKREVLVVRVEIEVKPSAGGSA [r15_95_TrROS_Hall]	4.61 ± 0.37	3.09 ± 0.17	3.9 ± 0.33
SAGGSAKKKIIEIKIKVKTKEEAKEAIEKLSEELKKKIKKIEIVEIKEKDGEYYVKIKIEVPPNEKSAGGSA [r15_244_TrROS_Hall]	1.97 ± 0.063	2.32 ± 0.075	2.25 ± 0.14
SAGGSAKKKTIELTIVIKIKKKPGETAEEIAKKILDALKKLLPPGAKIEIEVEVKDDYIVIKVKIESAGGSA [r15_739_TrROS_Hall]	2.49 ± 0.14	2.76 ± 0.09	2.69 ± 0.13
SAGGSAKKLKITIVADSEEEARRLAEELARLLRELLPDGSELEVEIEVRVFRPPPPPLPSLEELLASAGGSA [r15_663_TrROS_Hall]	3.2 ± 0.21	3.83 ± 0.12	3.49 ± 0.18
SAGGSAKKPKIKIKIKITNENGEKIEIEIEAETEEEALEAAKKLAEELAKKPNIKEVKIEITEIEPSAGGSA [r15_698_TrROS_Hall]	1.74 ± 0.067	2.19 ± 0.1	2.07 ± 0.096
SAGGSAKKPKPIYLKLTITLSEEEAKKLAEELAEELKKLFPDVEIVEIKVEKDENGNVTVTIYVRLSAGGSA [r15_718_TrROS_Hall]	3.14 ± 0.22	4.57 ± 0.14	4.25 ± 0.28
SAGGSAKKVEKVTVTVLIEKDGKLYLVRVTVTRPKVKYDKKTGKFTVTLKPGEKVEIKVEVVELPESAGGSA [r15_1040_TrROS_Hall]	2.65 ± 0.21	3.7 ± 0.12	3.62 ± 0.24
SAGGSAKPNEKVKIRIINEDGEEIEIEVEVKPGEKIYLLENGEEVEVKPGEKIEFPPGAKILVEKVSAGGSA [r15_152_TrROS_Hall]	1.11 ± 0.034	1.07 ± 0.02	1.1 ± 0.12
SAGGSAKPVKVDTLVLTAPFESKEEAEKAVEEFAKAVAEKLPKDVKVEVEVKYDPETKTFTAVVKASAGGSA [r15_981_TrMRF]	2.23 ± 0.093	2.368 ± 0.018	2.34 ± 0.051
SAGGSAKRVITIGNDEDQERVQEEAEDNGVKKRPIPGDWDDFLSNLQDNFPEIDRIVIPNGREFEISAGGSA [r15_712_TrROS]	-0.659 ± 0.32	-1.27 ± 0.32	-0.953 ± 0.44
SAGGSAKRVIVIGSKEERERAREAAEKENLEVVEIEGPVEEALAKLKELFPEIDEIVIVLPEEEEESAGGSA [r15_712_TrROS_Hall]	0.68 ± 0.14	0.768 ± 0.14	0.899 ± 0.19
SAGGSAKSLTLTVEITLPDGSTVRIEAEIEEKDGYLVIKVTIYNEDGEKVAEFTLVLKLPPPPPEPSAGGSA [r15_263_TrROS_Hall]	2.84 ± 0.47	4.42 ± 0.2	3.76 ± 0.66
SAGGSAKTIEITLEDGSKVTITEVKDGYIRIYVSEEAKEALKKLGLEEVDEENNVITLPLEKLKKLSAGGSA [r15_984_TrROS_Hall]	1.22 ± 0.052	1.86 ± 0.045	1.62 ± 0.1
SAGGSAKTITIEVKVEKTKDGKIKKGEIVKVEIEVDEKTKKVKIKIYNKNGELIAEIEIELSPEDLSAGGSA [r15_134_TrROS_Hall]	1.34 ± 0.21	2.95 ± 0.16	2.81 ± 0.39
SAGGSAKVKIIVTYNDGKKEEIIFDIPENYEISEVEKIAKKIAKNIAKKKNLPNVNIKVEKIEPLESAGGSA [r15_463_TrMRF]	2.41 ± 0.047	3.39 ± 0.06	3.09 ± 0.074
SAGGSAKWVLVRIELEKGGKPLEFYQRVKAKEPELDIKIPPGIEEEGFKILRIEVEEISPEELEKESAGGSA [r15_853_TrMRF]	0.864 ± 0.04	1.32 ± 0.18	1.18 ± 0.15
SAGGSALDPGKPVRVTVNLRVYRPLPDGTVKTFPSATVDLPVEEVLDLAKALPKEYTVTVDSIVVDSAGGSA [r15_833_TrMRF]	0.249 ± 0.14	0.663 ± 0.17	0.513 ± 0.18
SAGGSALEVKPGAGNTLTVYTPLPEDIPISEVIEELKKKYPNITAETDETSDGVAVVTLTLPPGLGSAGGSA [r15_1047_JUSTAS]	0.984 ± 0.051	0.401 ± 0.25	0.724 ± 0.12
SAGGSALKDFPLEEVEKVILVDLPDGKPALLVLLKGPPVVVLYPLESGKPIFIDAPLEEVLEFLLSSAGGSA [r15_810_TrMRF]	2.68 ± 0.05	2.892 ± 0.014	2.83 ± 0.044
SAGGSALKIHPDEKVLVKLKNTKKPVEAKVVKVEKLPNNKWVFYVEVKLNGKKVKIPVDGKDVVVASAGGSA [r15_62_TrMRF]	2.55 ± 0.2	2.38 ± 0.07	2.45 ± 0.23
